Experiments:
PpbHLH1 [1] = molecular target: T1, PpbHLH1 (Prunus persica, UniProt M5W438 1-344); experiment: competition
PpbHLH1 [2] = molecular target: T1, PpbHLH1; experiment: EMSA

B1: Probe1 unlabelled (cold competitor) (dsDNA)
DNA 1: TGAAATGATGATAAGCACATGGATATATGGCCTGGAAAAC
DNA 2: GTTTTCCAGGCCATATATCCATGTGCTTATCATCATTTCA
Question: Does B1 bind (PpbHLH1 [1])?
Answer: binds

B2: Mutant-Probe1 (dsDNA)
DNA 1: TGAAATGATGATAAGAGTGGAGATATATGGCCTGGAAAAC
DNA 2: GTTTTCCAGGCCATATATCTCCACTCTTATCATCATTTCA
Question: Does B2 bind (PpbHLH1 [2])?
Answer: no binding

Source: article PMC8486240
